Changes are numbered by the printed parent chain.
T1: full-length mouse Cavin1, His-MBP-tagged (mouse, UniProt O54724 1-392)
T1 chain: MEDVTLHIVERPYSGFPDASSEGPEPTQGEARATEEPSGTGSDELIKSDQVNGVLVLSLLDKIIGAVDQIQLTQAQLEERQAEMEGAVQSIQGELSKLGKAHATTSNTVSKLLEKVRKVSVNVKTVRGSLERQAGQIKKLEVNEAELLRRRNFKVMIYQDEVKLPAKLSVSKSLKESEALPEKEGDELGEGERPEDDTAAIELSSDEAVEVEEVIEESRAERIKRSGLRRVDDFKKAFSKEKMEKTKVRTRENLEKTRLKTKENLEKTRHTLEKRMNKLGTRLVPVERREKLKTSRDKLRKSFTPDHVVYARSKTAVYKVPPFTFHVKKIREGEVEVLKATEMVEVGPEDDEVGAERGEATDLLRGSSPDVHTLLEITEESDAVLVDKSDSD

T2: mouse Cavin1 HR1 domain (residues 45–155), His-Ub-tagged (mouse, UniProt O54724 45-155)
T2 chain: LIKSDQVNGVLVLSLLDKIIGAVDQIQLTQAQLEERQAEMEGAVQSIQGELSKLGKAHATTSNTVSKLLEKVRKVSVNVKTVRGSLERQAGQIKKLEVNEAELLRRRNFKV

T3: mouse Cavin1 HR1 domain 5Q mutant (mouse, UniProt O54724 45-155, Lys115 to glutamine | Arg117 to glutamine | Lys118 to glutamine | Lys124 to …)
T3 sequence: T2 chain with K71Q, R73Q, K74Q, K80Q, R83Q

T4: N-terminal fragment of mouse Cavin1 HR1 domain (residues 45–103) (mouse, UniProt O54724 45-103)
T4 chain: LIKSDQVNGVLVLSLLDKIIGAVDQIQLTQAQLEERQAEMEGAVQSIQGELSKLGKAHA

B1: nanobody NbA12 (VHH)
VHH: QVQLQESGGGLVQAGGSLRLSCAASGFTFDDYAIGWFRQAPGKEREGVSCITSSDGSTYYADSVKGRFTISSDNAKNTVYLQMNSLKPEDTAVYYCAAESWPPLCHYSGMDYWGKGTQVTVSS
B2: nanobody NbB7 (VHH)
VHH: QVQLQESGGGLVQAGGSLRLSCAVSGIRVNVNAMYWYRQAPGKQRELVAIITTFGSTNYADSAKGRFTISRDNTKNTVYLQMDNLKPEDTAVYYCNAPQFTDRYWGQGTQVTVSS

Key:
Assay in all cases: ITC
[1] = target: T1, full-length mouse Cavin1, His-MBP-tagged
[2] = target: T2, mouse Cavin1 HR1 domain (residues …)
[3] = target: T3, mouse Cavin1 HR1 domain 5Q mutant
[4] = target: T4, N-terminal fragment of mouse Cavin1 HR1 …

Binder | Kd [1] [nM] | Kd [2] [nM] | Kd [3] [nM] | Kd [4] [nM]
B1 | 8880 | 500 | 143 | 555
B2 | 1730 | – | – | 451
